The text below walks through data of patent US20240209086A1 (PETMEDIX, published 2024).

The target of experiment [1] is canine CD3 on canine T cells (canine PBMC) (canine, UniProt P27597 22-202). The experiment in a line: cell-based or functional assay.
The target of experiment [2] is T1, canine CD3εδ-Fc (heterodimer of canine CD3ε-hIgG4PE-knob and canine CD3δ-hIgG4PE-hole) (canine).
T1 construct: also called CD3εδ-Fc fusion protein; copies: 1 + 1
Nature of the experiment: SPR (Biacore 8K), CD3εδ-Fc amine-coupled to CM5 chip, multi-cycle kinetics, antibody 600-7.4 nM. The protocol:
Binding affinity of shortlisted candidates, described in Example 3, were assessed using Biacore 8K (Cytiva). Briefly, a CM5 Sensor Chip (Cytiva) was docked onto a Biacore 8K, equilibrated for 30′ at RT and then Running Buffer (10 mM HEPES pH6 150 mM NaCl 3 mM EDTA and 0.005% Tween20) was applied to the SPR chip surface. Canine CD3εδ-Fc was diluted into 10 mM acetate buffer pH4.5 and immobilised using standard amine coupling reaction. Antibodies dilutions were prepared by diluting the shortlisted candidates from 600 nM to 7.4 nM (5 concentrations with 1:3 dilutions) in running buffer and kinetics was assessed using multi-cycle kinetics method (120 sec association-300 sec dissociation). Kinetics and/or Affinity quantification was performed using Biacore Insight following standard analyses methods.
A general note: SPR reads the build-up and loss of mass on a sensor chip optically.

Sequence of canine CD3 on canine T cells (canine PBMC) (P27597 22-202 limits assumed, chain 1 of 3): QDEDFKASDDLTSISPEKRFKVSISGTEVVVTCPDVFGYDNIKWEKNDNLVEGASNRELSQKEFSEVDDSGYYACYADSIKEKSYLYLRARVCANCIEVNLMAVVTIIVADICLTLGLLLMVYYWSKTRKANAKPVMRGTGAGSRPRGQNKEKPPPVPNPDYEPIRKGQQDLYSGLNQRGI
Sequence of canine CD3 on canine T cells (canine PBMC) (chain, as listed by the source limits assumed, chain 2 of 3): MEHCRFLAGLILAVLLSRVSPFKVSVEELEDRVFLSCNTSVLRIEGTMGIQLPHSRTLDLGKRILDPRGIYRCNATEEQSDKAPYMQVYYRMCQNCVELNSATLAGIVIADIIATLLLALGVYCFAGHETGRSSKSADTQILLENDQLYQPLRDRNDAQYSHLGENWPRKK
Sequence of canine CD3 on canine T cells (canine PBMC) (chain, as listed by the source limits assumed, chain 3 of 3): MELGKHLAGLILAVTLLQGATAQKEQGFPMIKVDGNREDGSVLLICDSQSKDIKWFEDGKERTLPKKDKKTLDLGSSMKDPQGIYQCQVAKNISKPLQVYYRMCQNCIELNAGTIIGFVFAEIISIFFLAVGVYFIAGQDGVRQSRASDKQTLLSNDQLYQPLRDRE
T1 sequence (chain, as listed by the source mutant limits assumed): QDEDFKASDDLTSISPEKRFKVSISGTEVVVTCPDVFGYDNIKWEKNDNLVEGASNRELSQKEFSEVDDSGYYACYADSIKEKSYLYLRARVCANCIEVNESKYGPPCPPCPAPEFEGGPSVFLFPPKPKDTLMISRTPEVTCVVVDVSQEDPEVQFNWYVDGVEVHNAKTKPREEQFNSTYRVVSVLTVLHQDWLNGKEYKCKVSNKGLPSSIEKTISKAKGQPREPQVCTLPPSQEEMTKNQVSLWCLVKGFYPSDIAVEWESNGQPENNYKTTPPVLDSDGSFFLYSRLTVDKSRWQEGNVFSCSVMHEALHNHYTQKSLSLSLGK

B1: PMX190 in bispecific format (canine CD3 arm PMX190 x Rituximab arm, human IgG4PE knob-in-hole) (bispecific antibody)
heavy 1: EVQLVESGGDLVKPGGSLRLSCVASGFTFSSYQMSWVRQAPGKGLQWVAYISSGGGRTTYADAVRGRLTISRDNAKNTLYLQMNSLRAEDAAVYYCAREGGGEIYGYKDYGMDYWGHGTSLFVSSASTKGPSVFPLAPCSRSTSESTAALGCLVKDYFPEPVTVSWNSGALTSGVHTFPAVLQSSGLYSLSSVVTVPSSSLGTKTYTCNVDHKPSNTKVDKRVESKYGPPCPPCPAPEFEGGPSVFLFPPKPKDTLMISRTPEVTCVVVDVSQEDPEVQFNWYVDGVEVHNAKTKPREEQFNSTYRVVSVLTVLHQDWLNGKEYKCKVSNKGLPSSIEKTISKAKGQPREPQVYTLPPSQCEMTKNQVSLSCAVKGFYPSDIAVEWESNGQPENNYKTTPPVLDSDGSFFLVSRLTVDKSRWQEGNVFSCSVMHEALHNRFTQKSLSLSLGK
light 1: SYVLTQLPSKNVTLKQPAHITCGGDNIGSKSVHWYQQKLGQAPVLIIYYDSSRPTGIPERFSGANSGNTATLTISGALAEDEADYYCQVWDSSAKAWVFGEGTQLTVLRTVAAPSVFIFPPSDEQLKSGTASVVCLLNNFYPREAKVQWKVDNALQSGNSQESVTEQDSKDSTYSLSSTLTLSKADYEKHKVYACEVTHQGLSSPVTKSFNRGEC
heavy 2: not shown
light 2: QIVLSQSPAILSASPGEKVTMTCRASSSVSYIHWFQQKPGSSPKPWIYATSNLASGVPVRFSGSGSGTSYSLTISRVEAEDAATYYCQQWTSNPPTFGGGTKLEIKRTVAAPSVFIFPPSDEQLKSGTASVVCLLNNFYPREAKVQWKVDNALQSGNSQESVTEQDSKDSTYSLSSTLTLSKADYEKHKVYACEVTHQGLSSPVTKSFNRGEC
For B1, in experiment [1], the “EC50 (M) of killing potency, bispecific killing of hCD20+GFP MDCK II cells by canine PBMC” value (shortened to “EC50 (M) of killing potency”) was 1e-08 M. In addition, binding in experiment [2] was put at a Kd of 0.999 µM.

B2: PMX189 in bispecific format (canine CD3 arm PMX189 x Rituximab arm, human IgG4PE knob-in-hole) (bispecific antibody)
heavy 1: ELTLQESGPGLVKPSQTLSLTCVVSGGSVTNNYYWNWIRQRPGRGLEWMGYWTGSTKYNPAFQGRISITADTANNQFSLHLNSMSSEDTAVYYCARDRDRRVPHAYGYWGQGTLVTVSSASTKGPSVFPLAPCSRSTSESTAALGCLVKDYFPEPVTVSWNSGALTSGVHTFPAVLQSSGLYSLSSVVTVPSSSLGTKTYTCNVDHKPSNTKVDKRVESKYGPPCPPCPAPEFEGGPSVFLFPPKPKDTLMISRTPEVTCVVVDVSQEDPEVQFNWYVDGVEVHNAKTKPREEQFNSTYRVVSVLTVLHQDWLNGKEYKCKVSNKGLPSSIEKTISKAKGQPREPQVYTLPPSQCEMTKNQVSLSCAVKGFYPSDIAVEWESNGQPENNYKTTPPVLDSDGSFFLVSRLTVDKSRWQEGNVFSCSVMHEALHNRFTQKSLSLSLGK
light 1: SYVLTQLPSKNVTLKQPAHITCGGDNIGSKSVHWYQQKLGQAPVLIIYYDSSRPTGIPERFSGANSGNTATLTISGALAEDEADYYCQVWDSSAKASVFGGGTHLTVLRTVAAPSVFIFPPSDEQLKSGTASVVCLLNNFYPREAKVQWKVDNALQSGNSQESVTEQDSKDSTYSLSSTLTLSKADYEKHKVYACEVTHQGLSSPVTKSFNRGEC
heavy 2: not shown
light 2: QIVLSQSPAILSASPGEKVTMTCRASSSVSYIHWFQQKPGSSPKPWIYATSNLASGVPVRFSGSGSGTSYSLTISRVEAEDAATYYCQQWTSNPPTFGGGTKLEIKRTVAAPSVFIFPPSDEQLKSGTASVVCLLNNFYPREAKVQWKVDNALQSGNSQESVTEQDSKDSTYSLSSTLTLSKADYEKHKVYACEVTHQGLSSPVTKSFNRGEC
On to B2, for which, in experiment [1], the “EC50 (M) of killing potency” value is 1.1e-08 M. For the same molecule, binding in experiment [2] was put at a Kd of 0.177 µM.

B3: PMX191 in bispecific format (canine CD3 arm PMX191 x Rituximab arm, human IgG4PE knob-in-hole) (bispecific antibody)
heavy 1: EVQLVESGGDLVKPAGSLRLSCVASGFTFSDYSMSWVRQGPEKGLQLVAGMNSDGSTTYYTDAVRGRFTISRDNAKNTMYLQMNSLRDEDTAIYYCAKGAAAPDYWGQGTLVTVSSASTKGPSVFPLAPCSRSTSESTAALGCLVKDYFPEPVTVSWNSGALTSGVHTFPAVLQSSGLYSLSSVVTVPSSSLGTKTYTCNVDHKPSNTKVDKRVESKYGPPCPPCPAPEFEGGPSVFLFPPKPKDTLMISRTPEVTCVVVDVSQEDPEVQFNWYVDGVEVHNAKTKPREEQFNSTYRVVSVLTVLHQDWLNGKEYKCKVSNKGLPSSIEKTISKAKGQPREPQVYTLPPSQCEMTKNQVSLSCAVKGFYPSDIAVEWESNGQPENNYKTTPPVLDSDGSFFLVSRLTVDKSRWQEGNVFSCSVMHEALHNRFTQKSLSLSLGK
light 1: SYELTQPPSVNVTLRETAHITCGGDRIGSKYVQWIQQIPGQAPVVIIYKDNNRPTGIPERFSGANSGNTATLTISGALAEDEADYYCQVGDNYTWVFGEGTQLTVLRTVAAPSVFIFPPSDEQLKSGTASVVCLLNNFYPREAKVQWKVDNALQSGNSQESVTEQDSKDSTYSLSSTLTLSKADYEKHKVYACEVTHQGLSSPVTKSFNRGEC
heavy 2: not shown
light 2: QIVLSQSPAILSASPGEKVTMTCRASSSVSYIHWFQQKPGSSPKPWIYATSNLASGVPVRFSGSGSGTSYSLTISRVEAEDAATYYCQQWTSNPPTFGGGTKLEIKRTVAAPSVFIFPPSDEQLKSGTASVVCLLNNFYPREAKVQWKVDNALQSGNSQESVTEQDSKDSTYSLSSTLTLSKADYEKHKVYACEVTHQGLSSPVTKSFNRGEC
With B3, in experiment [1], the “EC50 (M) of killing potency” value amounted to 9.44e-09 M. In experiment [2], the Kd – broadly, the concentration at which binding is half-saturated – was 0.0621 µM.

B4: PMX184 in bispecific format (canine CD3 arm PMX184 x Rituximab arm, human IgG4PE knob-in-hole) (bispecific antibody)
heavy 1: ELTLQESGPGLVKPSQTLSLTCGVSGGSVTRSHYWNWVRQRPGRGLEWMGYWTGSTNYNPAFQGRISITADTAKNQFSLQLRSMTTEDTAVYFCARETTIPTFFFDYWGQGTLVTVSSASTKGPSVFPLAPCSRSTSESTAALGCLVKDYFPEPVTVSWNSGALTSGVHTFPAVLQSSGLYSLSSVVTVPSSSLGTKTYTCNVDHKPSNTKVDKRVESKYGPPCPPCPAPEFEGGPSVFLFPPKPKDTLMISRTPEVTCVVVDVSQEDPEVQFNWYVDGVEVHNAKTKPREEQFNSTYRVVSVLTVLHQDWLNGKEYKCKVSNKGLPSSIEKTISKAKGQPREPQVYTLPPSQCEMTKNQVSLSCAVKGFYPSDIAVEWESNGQPENNYKTTPPVLDSDGSFFLVSRLTVDKSRWQEGNVFSCSVMHEALHNRFTQKSLSLSLGK
light 1: SYVLTQLPSKNVTLKQPAHITCGGDNIGSKSVHWYQQKLGQAPVLIIYYDSSRPTGIPERFSGANSGNTATLTISGALAEDEADYYCQVWDSGAKAWVFGEGTQLTVLRTVAAPSVFIFPPSDEQLKSGTASVVCLLNNFYPREAKVQWKVDNALQSGNSQESVTEQDSKDSTYSLSSTLTLSKADYEKHKVYACEVTHQGLSSPVTKSFNRGEC
heavy 2: not shown
light 2: QIVLSQSPAILSASPGEKVTMTCRASSSVSYIHWFQQKPGSSPKPWIYATSNLASGVPVRFSGSGSGTSYSLTISRVEAEDAATYYCQQWTSNPPTFGGGTKLEIKRTVAAPSVFIFPPSDEQLKSGTASVVCLLNNFYPREAKVQWKVDNALQSGNSQESVTEQDSKDSTYSLSSTLTLSKADYEKHKVYACEVTHQGLSSPVTKSFNRGEC
B4: the “EC50 (M) of killing potency” value in experiment [1] is 2.55e-08 M. In experiment [2], this molecule registered a Kd of 0.0998 µM.

B5: PMX185 in bispecific format (canine CD3 arm PMX185 x Rituximab arm, human IgG4PE knob-in-hole) (bispecific antibody)
heavy 1: EVQLVESGGDLVKPGGSLRLSCVASGFTFSSYHMSWVRQAPGKGLQWVASINSGGSRTSYVDAVKGRFTISRDNAKKTLYLQMNSLRAEDTAVYYCASGRTGPKLGLGDYGMDSWGHGTSLFVSSASTKGPSVFPLAPCSRSTSESTAALGCLVKDYFPEPVTVSWNSGALTSGVHTFPAVLQSSGLYSLSSVVTVPSSSLGTKTYTCNVDHKPSNTKVDKRVESKYGPPCPPCPAPEFEGGPSVFLFPPKPKDTLMISRTPEVTCVVVDVSQEDPEVQFNWYVDGVEVHNAKTKPREEQFNSTYRVVSVLTVLHQDWLNGKEYKCKVSNKGLPSSIEKTISKAKGQPREPQVYTLPPSQCEMTKNQVSLSCAVKGFYPSDIAVEWESNGQPENNYKTTPPVLDSDGSFFLVSRLTVDKSRWQEGNVFSCSVMHEALHNRFTQKSLSLSLGK
light 1: SYVLTQLPSKNVTLKQPAHITCGGDNIGSKSVHWYQQKLGQAPVMIIYYDSSRPTGIPERFSGANSGNTATLTISGALAEDEADYYCQVWDSSAKAWVFGEGTQLTVLRTVAAPSVFIFPPSDEQLKSGTASVVCLLNNFYPREAKVQWKVDNALQSGNSQESVTEQDSKDSTYSLSSTLTLSKADYEKHKVYACEVTHQGLSSPVTKSFNRGEC
heavy 2: not shown
light 2: QIVLSQSPAILSASPGEKVTMTCRASSSVSYIHWFQQKPGSSPKPWIYATSNLASGVPVRFSGSGSGTSYSLTISRVEAEDAATYYCQQWTSNPPTFGGGTKLEIKRTVAAPSVFIFPPSDEQLKSGTASVVCLLNNFYPREAKVQWKVDNALQSGNSQESVTEQDSKDSTYSLSSTLTLSKADYEKHKVYACEVTHQGLSSPVTKSFNRGEC
With B5, the “EC50 (M) of killing potency” value in experiment [1] was 4.79e-09 M. This molecule also displayed a Kd in experiment [2] of 0.0721 µM.

B6: PMX192 in bispecific format (canine CD3 arm PMX192 x Rituximab arm, human IgG4PE knob-in-hole) (bispecific antibody)
heavy 1: EVQLVESGGDLVKPAGSLRLSCVASGFTFSDYSMSWVRQAPEKGLQLVAGINGDGSTTYYTDAVKGRFTISRDNAKNTVYLQMNSLRAEDTAMYYCAKGAGTGDFWGQGTLVTVSSASTKGPSVFPLAPCSRSTSESTAALGCLVKDYFPEPVTVSWNSGALTSGVHTFPAVLQSSGLYSLSSVVTVPSSSLGTKTYTCNVDHKPSNTKVDKRVESKYGPPCPPCPAPEFEGGPSVFLFPPKPKDTLMISRTPEVTCVVVDVSQEDPEVQFNWYVDGVEVHNAKTKPREEQFNSTYRVVSVLTVLHQDWLNGKEYKCKVSNKGLPSSIEKTISKAKGQPREPQVYTLPPSQCEMTKNQVSLSCAVKGFYPSDIAVEWESNGQPENNYKTTPPVLDSDGSFFLVSRLTVDKSRWQEGNVFSCSVMHEALHNRFTQKSLSLSLGK
light 1: SYELTQPPSVNVTLRETAHITCGGASIGRKYVQWIQQIPGQAPVVIIYKDSNRPTGIPERFSGANSGNTATLTISGALAEDEADYYCQVGDSGAWVFGEGTQLTVLRTVAAPSVFIFPPSDEQLKSGTASVVCLLNNFYPREAKVQWKVDNALQSGNSQESVTEQDSKDSTYSLSSTLTLSKADYEKHKVYACEVTHQGLSSPVTKSFNRGEC
heavy 2: not shown
light 2: QIVLSQSPAILSASPGEKVTMTCRASSSVSYIHWFQQKPGSSPKPWIYATSNLASGVPVRFSGSGSGTSYSLTISRVEAEDAATYYCQQWTSNPPTFGGGTKLEIKRTVAAPSVFIFPPSDEQLKSGTASVVCLLNNFYPREAKVQWKVDNALQSGNSQESVTEQDSKDSTYSLSSTLTLSKADYEKHKVYACEVTHQGLSSPVTKSFNRGEC
As to B6, the “EC50 (M) of killing potency” value in experiment [1] was determined as 3.21e-08 M. Moreover, the Kd in experiment [2] was 0.0744 µM.
